Data reported in US20030031667A1 (CELLDEX RESEARCH, published 2003).

T1: human macrophage mannose receptor (human, UniProt P22897 19-1456)
T1 construct: whole, on cells; In the immunoprecipitations it came from cell lysates; also called human B11 antigen; B11 target antigen
T1 sequence (looked up): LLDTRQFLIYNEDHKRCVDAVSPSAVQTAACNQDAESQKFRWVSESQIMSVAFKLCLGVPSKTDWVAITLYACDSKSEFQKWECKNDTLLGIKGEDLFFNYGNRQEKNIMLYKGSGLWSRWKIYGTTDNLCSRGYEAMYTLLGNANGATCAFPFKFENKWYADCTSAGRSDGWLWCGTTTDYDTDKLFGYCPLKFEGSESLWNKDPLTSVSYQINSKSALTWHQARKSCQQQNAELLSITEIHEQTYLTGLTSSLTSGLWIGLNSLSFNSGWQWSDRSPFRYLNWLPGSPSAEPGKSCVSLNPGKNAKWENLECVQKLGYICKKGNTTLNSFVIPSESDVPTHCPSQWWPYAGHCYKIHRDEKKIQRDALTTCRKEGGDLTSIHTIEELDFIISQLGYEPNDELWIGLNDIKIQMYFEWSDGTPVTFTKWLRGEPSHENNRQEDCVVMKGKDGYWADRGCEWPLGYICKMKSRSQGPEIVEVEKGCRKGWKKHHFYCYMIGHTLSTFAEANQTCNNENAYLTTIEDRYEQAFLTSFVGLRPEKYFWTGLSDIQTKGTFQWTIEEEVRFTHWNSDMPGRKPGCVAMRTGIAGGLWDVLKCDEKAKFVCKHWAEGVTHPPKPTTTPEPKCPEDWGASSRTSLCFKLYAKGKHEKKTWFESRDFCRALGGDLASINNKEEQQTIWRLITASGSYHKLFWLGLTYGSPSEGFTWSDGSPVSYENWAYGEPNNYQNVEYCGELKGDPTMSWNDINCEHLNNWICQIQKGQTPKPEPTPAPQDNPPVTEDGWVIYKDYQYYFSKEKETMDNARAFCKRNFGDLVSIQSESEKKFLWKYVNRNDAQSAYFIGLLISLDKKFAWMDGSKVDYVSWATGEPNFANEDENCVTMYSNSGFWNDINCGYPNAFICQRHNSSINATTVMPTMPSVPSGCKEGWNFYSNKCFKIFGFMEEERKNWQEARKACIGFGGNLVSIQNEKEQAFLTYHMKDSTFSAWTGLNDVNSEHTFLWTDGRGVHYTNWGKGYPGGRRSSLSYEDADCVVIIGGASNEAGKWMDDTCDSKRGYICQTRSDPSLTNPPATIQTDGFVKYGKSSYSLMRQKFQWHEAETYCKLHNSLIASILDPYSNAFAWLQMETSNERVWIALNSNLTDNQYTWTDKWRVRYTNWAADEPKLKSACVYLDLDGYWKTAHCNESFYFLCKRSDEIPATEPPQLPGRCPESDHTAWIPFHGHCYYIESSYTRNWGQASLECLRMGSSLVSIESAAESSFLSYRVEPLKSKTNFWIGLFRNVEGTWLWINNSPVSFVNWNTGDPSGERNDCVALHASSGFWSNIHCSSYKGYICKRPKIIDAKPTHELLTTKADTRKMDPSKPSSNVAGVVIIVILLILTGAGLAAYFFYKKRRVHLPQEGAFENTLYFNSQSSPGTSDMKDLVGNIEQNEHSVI


Experiments:
[1] = molecular target: T1, human macrophage mannose receptor; assay: flow cytometry, hybridoma supernatant on monocyte-derived human dendritic cells
Experimental: The hybridomas secreting human IgG were tested for reactivity with various types of blood cells by flow cytometry. Dendritic cells were prepared from adherent mononuclear cells by culturing for 5-7 days in media supplemented with GM-CSF and IL-4. Granulocytes (PMN), monocytes and lymphocytes were obtained from heparanized whole blood. The cells were incubated with hybridoma supernatants from IgG-positive clones at 4° C. Binding was detected with a FITC-labeled goat anti-human IgG(Fc) probe. The cell associated fluorescence was determined by analysis using a FACScalibur instrument.

[2] = molecular target: T1, human macrophage mannose receptor; assay: flow cytometry on monocyte-derived dendritic cells, anti-human IgG-F(ab')2-PE probe
Experimental: The reactivity of F(ab′)2 fragments of human monoclonal antibody B11 with dendritic cells from human tissues was evaluated by flow cytometry.
F(ab′)2 fragments were prepared by digestion of purified B11 mAb with pepsin under standard conditions. The F(ab′)2 fragments were purified by protein L chromatography. Dendritic cells, prepared fresh from human monocytes by culture in GM-CSF and IL-4, were incubated with whole antibody or F(ab′)2 antibody fragments for 1 hour at 4° C. The cells were washed before incubation with anti-human IgG-F(ab′)2-PE probe for 1 hour at 4° C. The cells were washed again prior to analysis using a FACScalibur instrument and Cellquest software.

Row | binding result [1] | binding result [2] | Binder
1 | binds |  | human monoclonal antibody B11 (antibody, human IgG1, V domains shown, Human IgG1 kappa from a HuMAb mouse hybridoma; also called B11 HuMab; mAb B11) VH: EVQLVQSGAEVKKPGESLRISCKGSGDSFTTYWIGWVRQMPGKGLEWMGIIYPGDSDTIYSPSFQGQVTISADKSISTAYLQWSSLKASDTAMYYCTRGDRGVDYWGQGTLVTVSS VL: DIQMTQSPSSLSASVGDRVTITCRASQGISRWLAWYQQKPEKAPKSLIYAASSLQSGVPSRFSGSGSGTDFTLTISGLQPEDFATYYCQQYNSYPRTFGQGTKVEIK
2 |  | binds | F(ab')2 fragments of human monoclonal antibody B11 (other, See the note of m1 on the VH/VL conflict; also called B11 F(ab')2) VH: EVQLVQSGAEVKKPGESLRISCKGSGDSFTTYWIGWVRQMPGKGLEWMGIIYPGDSDTIYSPSFQGQVTISADKSISTAYLQWSSLKASDTAMYYCTRGDRGVDYWGQGTLVTVSS VL: DIQMTQSPSSLSASVGDRVTITCRASQGISRWLAWYQQKPEKAPKSLIYAASSLQSGVPSRFSGSGSGTDFTLTISGLQPEDFATYYCQQYNSYPRTFGQGTKVEIK
